Experimental data published in article PMC10635007.

What was measured:
[1] = target: E-cadherin control (expressed without FUT2; without terminal fucosylation) (UniProt P12830); test: atomic force microscopy
[2] = target: FUT2-fucosylated E-cadherin (co-expressed with FUT2; with terminal fucosylation) (UniProt P12830); test: atomic force microscopy

E-cadherin control (expressed without FUT2; without terminal fucosylation) (from UniProt P12830 23-882) (natural protein)
mean maximum adhesion force [1]: 63.5 nN

FUT2-fucosylated E-cadherin (co-expressed with FUT2; with terminal fucosylation) (from UniProt P12830 23-882) (natural protein)
mean maximum adhesion force [2]: 79.8 nN
